Four molecules from paper doi:10.1101/2022.05.07.491039 (bioRxiv, 2022) can be followed below.

T1: full-length murine αE-catenin (mouse, UniProt P26231 1-906)
T1 sequence: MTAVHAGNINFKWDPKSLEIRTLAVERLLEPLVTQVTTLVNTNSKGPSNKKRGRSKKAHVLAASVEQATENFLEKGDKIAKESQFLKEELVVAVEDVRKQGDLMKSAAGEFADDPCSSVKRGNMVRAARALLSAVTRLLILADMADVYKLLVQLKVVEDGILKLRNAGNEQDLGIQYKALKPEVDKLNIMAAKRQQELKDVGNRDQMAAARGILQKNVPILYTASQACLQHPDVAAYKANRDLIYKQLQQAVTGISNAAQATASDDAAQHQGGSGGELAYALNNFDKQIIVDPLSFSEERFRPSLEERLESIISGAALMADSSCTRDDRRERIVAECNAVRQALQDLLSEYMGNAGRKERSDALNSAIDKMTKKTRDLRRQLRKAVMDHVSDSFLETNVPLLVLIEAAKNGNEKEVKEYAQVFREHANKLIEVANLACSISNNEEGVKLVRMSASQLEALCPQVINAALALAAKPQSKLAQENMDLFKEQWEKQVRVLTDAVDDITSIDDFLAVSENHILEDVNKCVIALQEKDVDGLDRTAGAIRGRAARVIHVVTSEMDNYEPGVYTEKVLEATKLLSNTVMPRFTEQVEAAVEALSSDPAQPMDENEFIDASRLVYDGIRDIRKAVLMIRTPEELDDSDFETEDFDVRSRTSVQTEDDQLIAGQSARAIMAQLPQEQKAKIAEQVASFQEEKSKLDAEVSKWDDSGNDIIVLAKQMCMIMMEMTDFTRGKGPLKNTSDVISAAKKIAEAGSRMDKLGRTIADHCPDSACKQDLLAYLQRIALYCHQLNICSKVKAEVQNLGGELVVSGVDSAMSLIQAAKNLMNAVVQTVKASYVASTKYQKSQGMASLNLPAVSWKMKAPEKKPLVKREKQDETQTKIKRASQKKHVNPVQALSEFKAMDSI

T2: αE-catenin R551A (mouse, UniProt P26231 1-906, R551A)
T2 sequence: T1 sequence with R551A

B1: β-catenin (natural protein)
chain: MATQADLMELDMAMEPDRKAAVSHWQQQSYLDSGIHSGATTTAPSLSGKGNPEEEDVDTSQVLYEWEQGFSQSFTQEQVADIDGQYAMTRAQRVRAAMFPETLDEGMQIPSTQFDAAHPTNVQRLAEPSQMLKHAVVNLINYQDDAELATRAIPELTKLLNDEDQVVVNKAAVMVHQLSKKEASRHAIMRSPQMVSAIVRTMQNTNDVETARCTAGTLHNLSHHREGLLAIFKSGGIPALVKMLGSPVDSVLFYAITTLHNLLLHQEGAKMAVRLAGGLQKMVALLNKTNVKFLAITTDCLQILAYGNQESKLIILASGGPQALVNIMRTYTYEKLLWTTSRVLKVLSVCSSNKPAIVEAGGMQALGLHLTDPSQRLVQNCLWTLRNLSDAATKQEGMEGLLGTLVQLLGSDDINVVTCAAGILSNLTCNNYKNKMMVCQVGGIEALVRTVLRAGDREDITEPAICALRHLTSRHQEAEMAQNAVRLHYGLPVVVKLLHPPSHWPLIKATVGLIRNLALCPANHAPLREQGAIPRLVQLLVRAHQDTQRRTSMGGTQQQFVEGVRMEEIVEGCTGALHILARDVHNRIVIRGLNTIPLFVQLLYSPIENIQRVAAGVLCELAQDKEAAEAIEAEGATAPLTELLHSRNEGVATYAAAVLFRMSEDKPQDYKKRLSVELTSSLFRTEPMAWNETADLGLDIGAQGEALGYRQDDPSYRSFHSGGYGQDALGMDPMMEHEMGGHHPGADYPVDGLPDLGHAQDLMDGLPPGDSNQLAWFDTDL
B2: β-catenin 78-671 (domain or fragment)
chain: QVADIDGQYAMTRAQRVRAAMFPETLDEGMQIPSTQFDAAHPTNVQRLAEPSQMLKHAVVNLINYQDDAELATRAIPELTKLLNDEDQVVVNKAAVMVHQLSKKEASRHAIMRSPQMVSAIVRTMQNTNDVETARCTAGTLHNLSHHREGLLAIFKSGGIPALVKMLGSPVDSVLFYAITTLHNLLLHQEGAKMAVRLAGGLQKMVALLNKTNVKFLAITTDCLQILAYGNQESKLIILASGGPQALVNIMRTYTYEKLLWTTSRVLKVLSVCSSNKPAIVEAGGMQALGLHLTDPSQRLVQNCLWTLRNLSDAATKQEGMEGLLGTLVQLLGSDDINVVTCAAGILSNLTCNNYKNKMMVCQVGGIEALVRTVLRAGDREDITEPAICALRHLTSRHQEAEMAQNAVRLHYGLPVVVKLLHPPSHWPLIKATVGLIRNLALCPANHAPLREQGAIPRLVQLLVRAHQDTQRRTSMGGTQQQFVEGVRMEEIVEGCTGALHILARDVHNRIVIRGLNTIPLFVQLLYSPIENIQRVAAGVLCELAQDKEAAEAIEAEGATAPLTELLHSRNEGVATYAAAVLFRMSEDKPQDYK
B3: chicken vinculin D1 domain (aa 1-259) (domain or fragment)
chain: MPVFHTRTIESILEPVAQQISHLVIMHEEGEVDGKAIPDLTAPVSAVQAAVSNLVRVGKETVQTTEDQILKRDMPPAFIKVENACTKLVRAAQMLQADPYSVPARDYLIDGSRGILSGTSDLLLTFDEAEVRKIIRVCKGILEYLTVAEVVETMEDLVTYTKNLGPGMTKMAKMIDERQQELTHQEHRVMLVNSMNTVKELLPVLISAMKIFVTTKNTKSQGIEEALKNRNFTVEKMSAEINEIIRVLQLTSWDEDAWA
B4: Mouse E-cadherin cytoplasmic domain (domain or fragment)
chain: not shown

Test in all cases: SEC
(In gel filtration, larger molecules generally elute earlier.)

Test [1] has as its target T1, full-length murine αE-catenin.
The next test concerns the target T2, αE-catenin R551A.
In the test “β-catenin” the target is B1.

Positions count from the first letter of the chain named.

Consider B1, for which the binding result (in test [1]; with αE-catenin R551A) was “binds” in each case.

In the case of B2, the binding result in test [1] is “binds”.

Regarding B3, the binding result with αE-catenin R551A was “binds”.

Regarding B4, the binding result with β-catenin is on record as “binds”.
